This passage reports Kd results from doi:10.1101/2022.02.11.480038 (2022).

As usually defined, the Kd is the concentration at which binding is half-saturated. Low values mean higher affinity, high ones lower affinity.

The labels stand for the following.
B1: Human GABARAP (residues 1-116) (natural protein)
chain: MKFVYKEEHPFEKRRSEGEKIRKKYPDRVPVIVEKAPKARIGDLDKKKYLVPSDLTVGQFYFLIRKRIHLRAEDALFFFVNNVIPPTSATMGQLYQEHHEEDFFLYIAYSDESVYG

Where no end group is shown, it is not given here. [ ]: non-standard residue; d: D form. pS = N[C@@H](COP(=O)(O)O)C(=O)O

Holding throughout (test): ITC
(In general: In ITC the heat of successive injections is recorded.)

In assay [1] the target is Human LC3B (residues 1-120) (human, UniProt Q9GZQ8 1-120).
For assay [2], the target named is B1.
Assay [3] deals with GABARAP Y5F H9A mutant (human, UniProt O95166 1-116, Y5F | H9A).
Assay [4] deals with Y5F H9A K48A.
Assay [5] concerns the target TEX264 269-278 S271A,S272A.

GABARAP Y5F H9A mutant, sequence (O95166 1-116 Y5F/H9A): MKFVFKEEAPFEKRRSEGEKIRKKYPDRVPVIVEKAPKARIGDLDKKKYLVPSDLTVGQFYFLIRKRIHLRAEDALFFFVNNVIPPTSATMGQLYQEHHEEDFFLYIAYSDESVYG

With SGDDFEELDL [phosphomimetic TEX264^(S271D, S272D) peptide (2SD-LIR)], the Kd in assay [1] is 7.6 µM; in assay [2], 2.1 µM.
With SGSSFEELDL [TEX264 LIR peptide (residues 269-278), unphosphorylated wild type], the Kd in assay [1] is 21 µM; in assay [2] it was 47 µM.
The corresponding values for [pS]G[pS][pS]FEELDL [TEX264 peptide (residues 269-278) with p-S269, p-S271, p-S272] are 0.25 µM and 0.25 µM.
Regarding EGEEFEELDL [phosphomimetic TEX264^(S269E, S271E, S272E) peptide (3SE-LIR)], the Kd is 5 µM in assay [1] and 2.2 µM in assay [2].
The corresponding values for DGDDFEELDL [phosphomimetic TEX264^(S269D, S271D, S272D) peptide (3SD-LIR)] are 6.8 µM and 2.2 µM.
As for SGASGSSFEELDL [TEX264 LIR peptide (residues 266-278), unphosphorylated], the Kd in assay [1] was found to be 39 µM; in assay [2], 61 µM.
The corresponding values for SGS[pS]FEELDL [TEX264 peptide (residues 269-278) with S272 phosphorylation (p-S272)] are 0.57 µM and 2.1 µM.
Regarding SG[pS][pS]FEELDL [phosphorylated TEX264 LIR (residues 269-278 with p-S271,p-S272)], the Kd in assay [1] stood at 0.37 µM; in assay [2] it was 0.52 µM; in assay [3] it was 2.2 µM; in assay [4], 30 µM.
As for SGEEFEELDL [phosphomimetic TEX264^(S271, 272E) peptide (2SE-LIR)], the results for the Kd in assay [1] and in assay [2] were 5.2 µM and 2.3 µM, respectively.
As to B1, in assay [5], binding was characterised by a dissociation constant (Kd) of 72 µM.
Regarding [pS]GASGSSFEELDL [TEX264 LIR peptide (residues 266-278) with S266 phosphorylation (p-S266)], the values for the Kd in assay [1] and in assay [2] were 22 µM and 9.3 µM, respectively.
